Measurements: patent US20150203579A1 (Regeneron, published 2015)

T1: monkey PD-1 with mFc (monkey)
T1 construct: also called monkey PD-1-mFc; monkey PD-1 dimer
T1 chain: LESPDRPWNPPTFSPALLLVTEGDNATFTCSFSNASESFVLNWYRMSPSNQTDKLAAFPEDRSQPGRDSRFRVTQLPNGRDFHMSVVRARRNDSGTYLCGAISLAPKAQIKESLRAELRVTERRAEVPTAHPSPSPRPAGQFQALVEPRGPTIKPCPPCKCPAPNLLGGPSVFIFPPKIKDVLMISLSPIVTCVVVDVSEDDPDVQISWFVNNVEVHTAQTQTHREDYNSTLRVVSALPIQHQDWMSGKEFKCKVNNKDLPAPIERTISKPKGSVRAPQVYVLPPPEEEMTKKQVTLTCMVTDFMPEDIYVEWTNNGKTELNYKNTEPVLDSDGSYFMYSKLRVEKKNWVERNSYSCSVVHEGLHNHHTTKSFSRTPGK

B1: H4xH8992P (antibody, V domains shown)
VH: EVQLVESGGGLVQPGRSLRLSCVASGFALHDYAMHWVRQVPGKGLEWVSSISWNSGVIGYADSLKGRFTISRDNAKNSLYLQMNSLRAEDTALYYCAKGSGSYYVSWFDPWGQGTLVTVSS
VL: not shown
notes: human IgG4 Fc with 2 or more amino acid changes (US20100331527)
B2: H4xH9135P2 (antibody, V domains shown)
VH: EVQLVESGGSVVRPGGSLRLSCVVSGFTFEDYGLSWVRQIPGKGLEWVSGISWTGGNTGYADSVKGRFTISRDNAKNSLYLQMNSLRAEDTALYHCTRDRQWLMQWYFDYWGQGTLVTVSS
VL: not shown
notes: as for B1
B3: H4xH9145P2 (antibody, V domains shown)
VH: QVQLVESGGGVVQPGRSLRLSCSASGFTFSAYAMHWVRQAPGKGLEWVAAISYGGSDKYYADSVKGRFTISRDNSKNTLYLQMNSLRTDDTAVYYCAKSAHWNFFFDYWGQGTLVTVSS
VL: not shown
notes: as for B1
B4: H4H9019P (antibody, V domains shown)
VH: EVQLVESGGGVVRPGGSLRLSCAASGFTFDDYGMSWVRQVPGKGLEWVSGISWNDGKTVYAESVKGRFIISRDNAKNSLYLEMNSLRAEDTALYYCARDWQYLIERYFDYWGQGTLVTVSS
VL: not shown
notes: fully human; H4H prefix (human IgG4 Fc)
B5: H4xH9128P2 (antibody, V domains shown)
VH: QVQLQESGPGLVKPSETLSLTCTVSGGSISSYHWNWIRQSPGKGLEWIGYIYYIGSTDYNPSLESRVTISVDTSKNQFSLKLSSVTAADTAVYYCARVPVGATGASDVWGQGTMVTVSS
VL: not shown
notes: as for B1
B6: H4xH9120P2 (antibody, V domains shown)
VH: QVQLVQSGAEVKRPGASVKVSCKASGYTFTSFYMYWVRQAPGQGLEWMGIINPSDGSTSNAQKFQGRVTMTRDTSTSTVYMELSSLRSEDTAVYYCARRVAGDIFDIWGQGTMVTVSS
VL: not shown
notes: as for B1
B7: H4xH8999P (antibody, V domains shown)
VH: QLQLQESGPGLVQPSETLSLTCTVSGDSISSTAYHWDWIRQPPGKGLEWIGTITYNGNTYFNPSLKSRVTISVDTSKNQFSLKLLSMTAAETAVFYCARHLGYNSDFFPFDFWGQGTLVTVSS
VL: not shown
notes: as for B1
B8: H4H9057P2 (antibody, V domains shown)
VH: EVQLVESGGGLVQSGRSLRLSCAASGFTFDDYAMHWVRQPPGKGLEWVSGINWNRGRTGYADSVKGRFTISRDNAKNSLYLQMNDLRVEDTALYYCAKAEQWLDEGYFDYWGQGTLVTVSS
VL: not shown
notes: as for B4
B9: H4xH9045P (antibody, V domains shown)
VH: EVQLVESGGGLVQPGRSLRLSCAASGFTFDDYDMHWVRQAPGKGLEWVSGSGWNRGSLGYADSVKGRFTISRDNAKKSLYLQMNSVRVEDTALYYCAKGFVVVSAAYFDYWGQGTLVTVSS
VL: not shown
notes: human IgG4 Fc with 2 or more amino acid changes (US20100331527); also called H4xH9045P2

Target: T2, recombinant human PD-1 expressed with a C-terminal human IgG1 Fc tag (human)
T2 construct: also called hPD-1-hFc; hPD1-hFc
Assay: SPR Biacore 3000: 100 nM hPD-1.hFc + 500 nM mAb to captured hPD-L1.mFc;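 also: inhibition study with anti-PD-1 mAbs, SPR responses tracked in real time and read at the close of each step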

Row | Binder | binding of the mixture (RU) | % Blocking [%]
1 | B1 | 2 | –
2 | B2 | -3 | 102
3 | B3 | -6 | 106
4 | B4 | -1 | –
5 | B5 | -5 | 105
6 | B6 | 0 | 100
7 | B7 | 0 | 100
8 | B8 | 57 | 43
9 | B9 | -5 | 105

Target: T1, monkey PD-1 with mFc
Assay: SPR, captured mAb, 25 C;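 also: purified anti-PD-1 antibodies tested on Biacore 4000 or T200 instruments, rate constants obtained via 1:1 binding model fit, with KD as kd/ka and half-life as ln2/(60·kd)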

Row | Binder | 100 nM Monkey PD-1-mFc Bound (RU) | Kd [nM] | t1/2 [min] | koff [s⁻¹] | kon [M⁻¹ s⁻¹]
10 | B1 | 122 | 1.24 | 46 | – | –
11 | B2 | 74 | 0.602 | 81 | 0.000143 | 238000
12 | B3 | 84 | 2.08 | 77 | 0.00015 | 72400
13 | B4 | 31 | 1.97 | 129 | – | –
14 | B5 | 64 | 1.57 | 94 | 0.000124 | 78700
15 | B6 | 52 | 1.91 | 104 | 0.000112 | 58400
16 | B7 | 126 | 0.21 | 100 | – | –
17 | B8 | 75 | 2.98 | 38 | 0.000303 | 102000
18 | B9 | 78 | 1.72 | 69 | 0.000168 | 97800

Target: T3, full length human PD-1 on HEK293/hPD-1 cells (human, UniProt Q15116 25-288)
Assay: FACS dose response, HEK293/hPD-1 cells

Row | Binder | EC50 [nM] | Max Geom. Mean MFI @ 100 nM [MFI]
19 | B2 | 0.105 | 32800
20 | B3 | 0.232 | 30600
21 | B4 | 1.4 | 29200
22 | B6 | 0.48 | 34100
23 | B8 | 0.236 | 20000
24 | B9 | 0.0917 | 24700

Target: PD-1 chimera: extracellular domain of human PD-1 with trans-membrane and cytoplasmic domains of human CD300a, … (human, UniProt Q9UGN4 181-299, limits assumed)
Assay: cell-based or functional assay

Row | Binder | Emax mean [%] @ 100 nM [%] | Concentration (M) of Antibody at 150% activation [M]
25 | B1 | 178 | –
26 | B2 | 193 | 1.55e-09
27 | B3 | 185 | 2.4e-09
28 | B4 | 180 | 1.79e-08
29 | B6 | 166 | 1.1e-08
30 | B7 | 217 | –
31 | B8 | 212 | 2.68e-08
32 | B9 | 176 | 2.23e-08

Target: T1, monkey PD-1 with mFc
Assay: SPR, captured mAb, 37 C;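 also: Real-time Biacore surface plasmon resonance biosensor readout of PD-1 reagent binding to purified anti-PD-1 monoclonal antibodies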

Row | Binder | 100 nM Monkey PD-1-mFc Bound (RU) | Kd [nM] | t1/2 [min] | koff [s⁻¹] | kon [M⁻¹ s⁻¹]
33 | B1 | 86 | 4.38 | 8 | – | –
34 | B2 | 52 | 2.32 | 15 | 0.000794 | 342000
35 | B3 | 94 | 4.04 | 19 | 0.000609 | 151000
36 | B4 | 36 | 3.17 | 45 | – | –
37 | B5 | 60 | 4.36 | 14 | 0.000816 | 187000
38 | B6 | 46 | 6.06 | 23 | 0.000502 | 82900
39 | B7 | 83 | 0.7 | 23 | – | –
40 | B8 | 28 | 29.6 | 2.4 | 0.00477 | 161000
41 | B9 | 65 | 5.66 | 8 | 0.00136 | 241000

Target: T3, full length human PD-1 on HEK293/hPD-1 …
Assay: FACS, 100 nM mAb, HEK293/hPD-1 cells;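 also: antibodies incubated with cells for 15-30 min on ice, bound antibody detected through a secondary F(ab′)2 by flow cytometry, with parental HEK293 cells tested in parallel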

Row | Binder | MFI [MFI]
42 | B1 | 17500
43 | B2 | 9380
44 | B3 | 11600
45 | B4 | 8610
46 | B5 | 9080
47 | B6 | 9980
48 | B7 | 28900
49 | B8 | 6500
50 | B9 | 8880

Target: T4, dimeric biotinylated human PD-1 protein with a C-terminal human Fc tag (human, biotinylated (sites not given))
T4 construct: also called biot-hPD-1-hFc
Assay: competition ELISA: 200 pM biot-hPD-1-hFc to coated hPD-L1-mFc

Row | Binder | % blocking at 50 nM antibody [%] | IC50 [nM]
51 | B2 | 96 | 0.15
52 | B3 | 97 | 0.35
53 | B5 | 97 | 0.19
54 | B6 | 96 | 0.39
55 | B9 | 95 | 0.13

Target: T5, recombinant human PD-1 dimer expressed with a C-terminal mouse IgG2a Fc tag (human)
T5 construct: also called hPD-1-mFc
Assay: competition ELISA: 1.5 nM hPD-1-mFc to coated hPD-L1-hFc; * below theoretical bottom 7.5E-10 M

Row | Binder | IC50 [nM]
56 | B5 | 0.64
57 | B8 | 0.19
58 | B9 | 0.28

Target: T5, recombinant human PD-1 dimer expressed …
Assay: competition ELISA: 1.5 nM hPD-1-mFc to coated hPD-L1-hFc

Row | Binder | % blocking at 200 nM antibody [%] | IC50 [nM]
59 | B1 | 93 | 1.3
60 | B2 | 97 | 1.1
61 | B3 | 90 | 0.93
62 | B4 | 98 | 1.3
63 | B5 | 98 | –
64 | B6 | 98 | 1
65 | B7 | 88 | 1.3
66 | B8 | 98 | –
67 | B9 | 98 | –

Target: T6, recombinant human PD-L1 expressed with a C-terminal mouse IgG2a Fc tag (human)
T6 construct: also called hPD-L1-mFc; hPD-L1.mFc
Assay: SPR Biacore 3000: 500 nM mAb alone (no hPD-1.hFc) over captured hPD-L1.mFc surface, control

Row | Binder | 500 nM of anti-PD-1 monoclonal antibody (RU)
68 | B1 | 3
69 | B2 | -3
70 | B3 | -8
71 | B4 | -2
72 | B5 | -5
73 | B6 | 1
74 | B7 | 1
75 | B9 | -4

Target: T3, full length human PD-1 on HEK293/hPD-1 …
Assay: FACS, 100 nM mAb

Row | Binder | ratio of MFI HEK293/hPD-1 to HEK293 parental cells
76 | B2 | 82.2
77 | B3 | 51.2
78 | B6 | 91.9
79 | B8 | 46.1
80 | B9 | 93.7
